# Measurements: the supplement of paper PMC10724198
# ± gives the standard deviation of the averaged measurements.
# Tested on: Saccharomyces cerevisiae
# Assay: protein stability index of tFT-peptide fusion (C-terminal peptide) (PSI (0-1 scale)); higher = more stable (slower turnover)
# Conditions: genetic background: wild type; temperature: 30 C
# 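Further: PSI is a weighted mean of sequencing reads over stability bins, variants kept only with over 10 reads, mCherry proximal and sfGFP distal, peptide attached via GGGS linker.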
row,Sequence,protein stability index
1,VVCFGNFGGVRV,0.778 ± 0.049
2,VVGAALRDGPRE,0.71 ± 0.012
3,VVGAIRWGGGRR,0.705 ± 0.014
4,VVGAVSASLAGV,0.662 ± 0.056
5,VVGGGDWRWGVW,0.7709 ± 0.0046
6,VVGNGGWVEGEV,0.621 ± 0.13
7,VVGSAGGGGFVL,0.6717 ± 0.0065
8,VVGSVPVSAFWE,0.746 ± 0.075
9,VVGSWGRGGCGG,0.639 ± 0.0017
10,VVGVCLDIVCSP,0.519 ± 0.013
11,VVGWSSGVVEVA,0.688 ± 0.035
12,VVHECIGVYGTV,0.634 ± 0.017
13,VVLFCPFISSED,0.726 ± 0.012
14,VVLGQGRGVGAM,0.669 ± 0.012
15,VVPSLLVLPFFC,0.51 ± 0.01
16,VVRLEGGSGAVW,0.703 ± 0.0085
17,VVRLGGVSWAGG,0.649 ± 0.016
18,VVRLGLVSGCGG,0.581 ± 0.013
19,VVRMFRLGNGNF,0.7 ± 0.0083
20,VVRQADVLLGLV,0.662 ± 0.019
21,VVSLPITGTVTL,0.722 ± 0.029
22,VVSSFVCLLRRG,0.654 ± 0.055
23,VVVGGVGGFFGC,0.754 ± 0.015

row,Sequence,protein stability index
1,VVVGQGPLRGGA,0.714 ± 0.021
2,VVVIGVWGGGVG,0.612 ± 0.019
3,VVVRVAEGGGRW,0.666 ± 0.047
4,VVWCSWGFLFSA,0.625 ± 0.042
5,VWCVWGVGGLWA,0.648 ± 0.025
6,VWGGGGVTVWLV,0.6149 ± 0.0054
7,VWGGGSWGGCGG,0.744 ± 0.082
8,VWGWGSWGGCGG,0.705 ± 0.066
9,VWHWGRSLYLAA,0.525 ± 0.021
10,VWRGGGVRLGRL,0.75 ± 0.046
11,VWSWGEGGGAVV,0.7 ± 0.035
12,VWVCGLGGGVLG,0.777 ± 0.021
13,VYGRRNVRLNIV,0.582 ± 0.068
14,VYGVVVWLFGFL,0.678 ± 0.0095
15,VYHCRLSQHRTL,0.717 ± 0.034
16,VYSSVPGRIAID,0.708 ± 0.008
17,VYYDERLGDGHS,0.866 ± 0.021
18,WAGGGVWRVGGR,0.715 ± 0.042
19,WAKRERRNEGRR,0.71 ± 0.011
20,WCGGGGRGGVAG,0.72 ± 0.047
21,WCIPEAPVATSR,0.684 ± 0.0083
22,WCSRRIDWSSAP,0.7318 ± 0.002
23,WDGWWGGAGVGE,0.695 ± 0.077

row,Sequence,protein stability index
1,WDVGSHRGGFWL,0.713 ± 0.02
2,WERGGGGRVCGW,0.754 ± 0.02
3,WFCSVICGVFSV,0.5678 ± 0.00093
4,WFKALCPIFCKD,0.62 ± 0.015
5,WFLRSFGIQRSG,0.511 ± 0.0047
6,WFRLRFASGRRS,0.682 ± 0.054
7,WFVCVARCPFPF,0.623 ± 0.035
8,WFVTVISSRFGS,0.6444 ± 0.0011
9,WGARSRFRWGRS,0.7284 ± 0.0052
10,WGDGSGRVWEIS,0.68 ± 0.03
11,WGFGRCELMLGS,0.708 ± 0.035
12,WGGGGRLAGLLG,0.687 ± 0.037
13,WGGGRGLRGRWG,0.694 ± 0.057
14,WGGRAVGVLGVG,0.629 ± 0.048
15,WGGRSWGLRRGC,0.664 ± 0.028
16,WGGTAGWLHIGV,0.747 ± 0.076
17,WGGVRSGGACCA,0.72 ± 0.075
18,WGKRGGLGALSR,0.653 ± 0.06
19,WGLLCPLRSDNV,0.705 ± 0.017
20,WGRGETLCSSVP,0.72 ± 0.011
21,WGRGGSRGSWGA,0.716 ± 0.014
22,WGRNGRRMEVTK,0.687 ± 0.017
23,WGSVGVVGLFSG,0.69 ± 0.057

row,Sequence,protein stability index
1,WGTDVGAGCVAR,0.741 ± 0.027
2,WGVCWRVWGFGC,0.677 ± 0.074
3,WGWGGGWSGACL,0.679 ± 0.0071
4,WGWGRWEMVGRT,0.695 ± 0.011
5,WGYGRGRVWEIS,0.6137 ± 0.0011
6,WHLQYTLIPYEA,0.635 ± 0.054
7,WIGRSVGVELCR,0.807 ± 0.13
8,WIKKGKNRLRKT,0.586 ± 0.05
9,WISAPTDRNITN,0.713 ± 0.0095
10,WISLRRIKSNRE,0.802 ± 0.014
11,WKYRGVGGVGMG,0.745 ± 0.097
12,WLFVGGWGVFGG,0.674 ± 0.068
13,WLVRNVVGGGVC,0.722 ± 0.061
14,WLYGEFGALVVD,0.685 ± 0.033
15,WNWSIITTENKP,0.7 ± 0.064
16,WPGICVWAGSPG,0.717 ± 0.06
17,WPVRNRIQPPPR,0.705 ± 0.051
18,WQGSASCSVVLV,0.55 ± 0.043
19,WQIDVWDSNCVM,0.692 ± 0.027
20,WQWDMESKRKKE,0.7056 ± 0.0026
21,WRFTSCCPDPAT,0.772 ± 0.076
22,WRLDDPTLISNI,0.693 ± 0.032
23,WRMGCSVRGVVG,0.693 ± 0.055

row,Sequence,protein stability index
1,WRPVSVVSPLSD,0.677 ± 0.081
2,WRSSSFFPAAVG,0.6715 ± 0.0042
3,WRVDKREPPGRL,0.707 ± 0.034
4,WSGDLRNIEFAR,0.816 ± 0.1
5,WSGQWCRGRAGG,0.706 ± 0.018
6,WSGWGYGISALL,0.681 ± 0.047
7,WSIEESLGIWLR,0.538 ± 0.021
8,WSLPILPPPSPD,0.663 ± 0.032
9,WSQDRLFLGFGC,0.875 ± 0.038
10,WSRLAGMGRGGA,0.764 ± 0.013
11,WSRSGGGEKYGV,0.69 ± 0.0094
12,WSSGLHHLPPSP,0.706 ± 0.091
13,WSSPCTGGVGKC,0.63 ± 0.0068
14,WSSSPAFKPSRR,0.655 ± 0.098
15,WSVVRVGGCGAR,0.699 ± 0.024
16,WSWGGLHRELAA,0.744 ± 0.0099
17,WSWRGMVELVEE,0.642 ± 0.069
18,WTPGTPVFSKGI,0.714 ± 0.035
19,WVGGGLVVFGWK,0.6944 ± 0.0025
20,WVGGVVMVPVLL,0.542 ± 0.0094
21,WVGLGRVWVKLG,0.697 ± 0.044
22,WVLGGVAPPAVL,0.694 ± 0.048
23,WVLPFLGAWLEL,0.606 ± 0.063

row,Sequence,protein stability index
1,WVPCGYIERAPL,0.582 ± 0.05
2,WVSAMGIPRVVG,0.574 ± 0.05
3,WVSGLVSIGACL,0.683 ± 0.0076
4,WVTCALVVQSRF,0.693 ± 0.0073
5,WVVLGGRSGCGA,0.667 ± 0.053
6,WWEGSFRVGAVR,0.638 ± 0.008
7,WWGCRSVGVGLG,0.675 ± 0.025
8,WWGWGGVACLLL,0.693 ± 0.059
9,WWVGVVGCGSGA,0.676 ± 0.11
10,WYRIPGASHGPP,0.662 ± 0.034
11,YADTCEGDNLTS,0.661 ± 0.03
12,YAKKIDTIIILT,0.54 ± 0.009
13,YANFFVVGELGP,0.687 ± 0.02
14,YAYLGSNLKQTA,0.703 ± 0.03
15,YCHVPVVGSWIP,0.735 ± 0.067
16,YCLERVPAEYDG,0.67 ± 0.019
17,YCVMEVAGLEWE,0.69 ± 0.038
18,YDFHWAYFHSLY,0.7113 ± 0.0035
19,YFCGARSVGPGD,0.717 ± 0.035
20,YFVAVLGRCIRG,0.6519 ± 0.0011
21,YGAGLSHLFRIS,0.636 ± 0.041
22,YGGGVWRGVALG,0.6914 ± 0.0052
23,YGLVSFVCFNGG,0.679 ± 0.042

row,Sequence,protein stability index
1,YGTGNGRRTYFD,0.735 ± 0.04
2,YGVLEYLRDLVF,0.689 ± 0.016
3,YIGSVCLCVSPV,0.5999 ± 0.0038
4,YIHQRKGRKPNE,0.622 ± 0.057
5,YINTKKKKINKT,0.655 ± 0.014
6,YIQGAPGGLGYP,0.713 ± 0.0077
7,YKGQVKKNNPQC,0.726 ± 0.033
8,YKGRYDCRVGGR,0.682 ± 0.0096
9,YKKVKADKKKRM,0.687 ± 0.017
10,YLCVLASLSSTF,0.591 ± 0.022
11,YLFVRTGYRCKW,0.681 ± 0.033
12,YLGFRADVVFGK,0.712 ± 0.063
13,YLGFRVACPMLA,0.501 ± 0.036
14,YLGWLYQKCGTV,0.639 ± 0.056
15,YLKVNDELERRR,0.695 ± 0.05
16,YLRACDPPAVHR,0.67 ± 0.024
17,YLRGRCSSLSLR,0.698 ± 0.036
18,YLSPPLLPSFPL,0.728 ± 0.021
19,YLSVLQLRCFPA,0.659 ± 0.019
20,YLTNIHQRVLLP,0.659 ± 0.031
21,YLVKSCCNKDNV,0.659 ± 0.029
22,YLVPPLQPHSPA,0.7305 ± 0.0056
